According to US20160311886A1, “Constructs Binding to Phosphatidylserine and Their Use in Disease Treatment and Imaging” (Board of Regents, The University of Texas System, priority 2005, published 2016):

Legend:
[1] = test system: cancer patients having progressive disease; settings: human, in vivo; cited from earlier work
[2] = in vivo; cited from earlier work
[3] = test system: ABAE cells with exposed PS; test: Live-cell binding assay on LPC-treated endothelial cells; type: cell-based, bovine
Method: Adult bovine aortic endothelial (ABAE) cells were maintained in DMEM supplemented with 10% FBS and 2 mM L-glutamine. ABAE cells were removed from subconfluent cultures by brief exposure to 0.25% trypsin/0.02% EDTA, and 8-well chamber slides were seeded with 2×10^4 cells/well. Following overnight culture, cells were washed gently with PBS and treated with 200 μM lysophosphatidylcholine (LPC) to induce PS exposure.
PS exposure was determined by immunofluorescence staining. Cells were washed thoroughly in PBS, fixed in 4% paraformaldehyde (w/v), and incubated with a biotin-conjugated anti-mouse secondary antibody. Next, cells were incubated with FITC-conjugated streptavidin (Jackson Immunoresearch) to detect antibody binding. Cells were then permeablized with 0.1% Triton-X100 in PBS and counterstained with Texas Red-conjugated phalloidin (Molecular Probes, Eugene, Oreg.), and 4′, 6-diamidino-2-phenylindole (DAPI; Molecular Probes). Images were captured using a Coolsnap digital camera (Photometrics, Tucson, Ariz.) mounted on a Nikon microscope and processed with MetaVue software (Universal Imaging Corporation, Downingtown, Pa.).
The area of antibody binding was determined using MetaVue image analysis software, which is able to quantify the number of illuminated pixels in an image. Images of FITC fluorescence were used to quantify antibody binding. Corresponding images of DAPI fluorescence were used to normalize the FITC images for the number of cells present in the field. A small FITC/DAPI ratio indicates a small antibody binding area, whereas a large FITC/DAPI ratio indicates a large binding area. The FITC/DAPI ratios were used to determine increases or decreases in antibody binding area relative to a basal amount of antibody binding under the selected conditions. Five images at 200× magnification were used for each analysis. Data are presented as average relative FITC/DAPI ratios with error bars representing the standard deviation.
Cells were then washed, fixed, and stained with fluorescent markers to visualize binding of antibody to the cell surface.

[4] = test system: ABAE cells with exposed PS; test: Binding of monomeric and dimeric hβ2GPI to LPC-treated cells; type: cell-based, bovine; settings: 200 μM LPC, DMEM+10% FBS
Method: FIG. 24A, FIG. 24B, FIG. 24C and FIG. 24D. An artificial dimeric β2GPI construct binds endothelial cells with exposed PS. ABAE cells were incubated for 30 min with 200 μM LPC in DMEM+10% FBS plus purified hβ2GPI-monomer (FIG. 24A), hβ2GPI-dimer (FIG. 24B), or a mutant hβ2GPI-dimer unable to bind lipid (FIG. 24C). Cells were then washed and incubated with anti-β2GPI to detect hβ2GPI monomers and dimers. […] Cells were then washed, fixed and stained with fluorescent markers. The cytoskeleton appears red, nuclei appear blue, and hβ2GPI-monomers and hβ2GPI-dimers appear green. FIG. 24D, the binding area of hβ2GPI-monomers and hβ2GPI-dimers was quantified using MetaVue software. All values are relative to the binding of hβ2GPI-dimers to non-LPC treated cells, which was set to one.
In these studies, an artificial β2GPI dimer is used, which was generated by fusing hβ2GPI to the C-terminus of the apple 4 dimerization domain of factor XI (Lutters et al., 2001). […] Nonetheless, binding of this dimer to cells with exposed PS validates the use of Fc-β2GPI dimers to bind to PS-positive cells.
ABAE cells were treated with LPC to induce PS exposure and incubated with purified hβ2GPI, hβ2GPI-dimer, or a mutant hβ2GPI-dimer containing a disrupted lipid binding domain. As expected, binding of the monomeric hβ2GPI to LPC-treated ABAE cells was negligible (FIG. 24A).

NC(=O)c1nnn(Cc2cc(Cl)c(C(=O)c3ccc(Cl)cc3)c(Cl)c2)c1N [CAI, carboxyamidotriazole]
patients with disease stabilization [1]: 49%

monophosphoryl lipid A [MPL]
dose shown to be safe for human use [2]: 100 μg/m^2

B1: hβ2GPI: Human β2GPI purified from human plasma (protein)
chain: GRTCPKPDDLPFSTVVPLKTFYEPGEEITYSCKPGYVSRGGMRKFICPLTGLWPINTLKCTPRVCPFAGILENGAVRYTTFEYPNTISFSCNTGFYLNGADSAKCTEEGKWSPELPVCAPIICPPPSIPTFATLRVYKPSAGNNSLYRDTAVFECLPQHAMFGNDTITCTTHGNWTKLPECREVKCPFPSRPDNGFVNYPAKPTLYYKDKATFGCHDGYSLDGPEEIECTKLGNWSAMPSCKASCKLPVKKATVVYQGERVKIQEKFKNGMLHGDKVSFFCKNKEKKCSYTEDAQCIDGTIEVPKCFKEHSSLAFWKTDASDVKPC
mediation of ch3G4 binding to ABAE cells with exposed PS ([3]; 2 μg/ml, LPC): able to mediate binding
binding to endothelial cells with exposed PS ([3]; 10% MS and LPC, absence of ch3G4): does not bind endothelial cells with exposed PS in the absence of ch3G4
binding to LPC-treated ABAE cells [4]: negligible
